Results: patent publication US20260055369A1, “METHOD FOR GENERATING CELLS OF THE T CELL LINEAGE WITH ENGINEERING BROADLY REACTIVE HUMAN NOTCH LIGAND” (H. Lee Moffitt Cancer Center and Research Institute, Inc., priority 2022, published 2026)

What was measured:
[1] = tested on: hPSC-derived neural progenitors; assay: Differentiation of hPSC-derived neural progenitors into neurons (qPCR markers); type: cell-based, human; details: for neural progenitor marker SOX2 expression / neuronal markers (MAPT, SNAP25, DCX, VGLUT2, TBR1) expression: soluble protein 10, 100, 1,000 nM, day 8-14, qPCR
Description: Neural differentiation of hPSCs was performed in two separate phases over 14 days. In the first phase, to differentiate hPSCs into neural progenitors for 7 days, a modification of a previously-reported method was used. However, in this study, differentiation conducted in Chemically Defined Media 2 (CDM2) media, whose composition has been described previously: 50% IMDM+GlutaMAX (Thermo Fisher)+50% F12+GlutaMAX (Thermo Fisher)+1 mg/mL polyvinyl alcohol (Sigma)+1% v/v chemically defined lipid concentrate (Thermo Fisher)+450 μM 1-thioglycerol (Sigma)+0.7 μg/mL recombinant human insulin (Sigma)+15 μg/mL human transferrin (Sigma)+1% v/v penicillin/streptomycin (Thermo Fisher). To create CDM2, polyvinyl alcohol was brought into suspension by gentle warming and magnetic stirring, and the media was sterilely filtered (through a 0.22 μm filter) prior to use. Throughout the first 7 days, differentiation media was changed every 24 hours. The second phase was to differentiate hPSC-derived neural progenitors into neurons for 7 days, from the day 8-14 interval. Neuronal differentiation media was modified from a previously-reported method^9. From day 8-14, cells were differentiated in BDNF (20 ng/ml, PeproTech), GDNF (20 ng/ml, PeproTech), Forskolin (10 μM, Tocris), 2-Phospho-L-ascorbic acid (0.2 mM, Sigma-Aldrich), with the basal media compositions varying depending on the day of differentiation. On day 8, 25% Neurobasal media+75% CDM2 media was used; on day 9, 50% Neurobasal media+50% CDM2 media was used; on day 10, 75% Neurobasal media+25% CDM2 media was used; on days 11-14, 100% Neurobasal media was used. The composition of Neurobasal media was: Neurobasal basal media (Thermo Fisher)+1% v/v N2 (Thermo Fisher)+2% v/v B27 (Thermo Fisher)+1% v/v penicillin/streptomycin (Thermo Fisher), which was filtered through a sterilizing 0.22 μM filter before use. In summary, starting on day 8 of differentiation, Neurobasal media was added in an increasing ¼th increment on a daily basis. However, to emphasize, throughout the entire day 8-14 interval, cells were exposed to the same concentration of neuronal differentiation signals (BDNF, GDNF, Forskolin and 2-Phospho-L-ascorbic acid), although different basal medias were used on different days.
To test the effect of Notch signaling on neuronal differentiation, starting on day 8, hPSC-derived neural progenitors were treated with the aforementioned neuronal differentiation signals in the presence or absence of soluble Delta^MAX (0-1,000 nM), soluble wild-type DLL4 (0-1,000 nM), or DAPT (10,000 nM, Tocris).
After differentiation of hPSCs into neurons as described above, gene expression was analyzed using RNA extraction, reverse transcription, and quantitative PCR (qPCR) as previously described. First, cells were lysed with RNeasy Lysis Buffer (Qiagen) and stored at −20° C. Cell lysates were then thawed, and RNA was extracted using the RNeasy Mini Plus Kit (Qiagen) as per the manufacturer's instructions and dissolved in H2O. Next, 300 ng of RNA was reverse transcribed into complementary DNA (cDNA) using the High-Capacity cDNA Reverse Transcription Kit (Applied Biosystems) according to the manufacturer's protocol. Total cDNA was diluted 1:20 in H2O and qPCR was performed with the SensiFAST SYBR Lo-ROX Kit (Bioline) using 10 μL qPCR reactions per well in a 384-well plate. Each individual reaction contained 5.0 μL 2× SensiFAST SYBR qPCR Master Mix+4.6 μL cDNA+0.4 μL of 10 μM primer stock (5 μM forward+5 μM reverse primers). […]

Notch1 [2] = assay: Notch activation assay with ligands non-specifically adsorbed to plates (CHO-K1 N1-Gal4 fluorescent reporter); type: cell-based; details: for EC50 for Notch1 activation: non-specifically adsorbed to tissue culture plates, 24 hours
Sequence of Notch1 (P46531 19-1664 limits assumed): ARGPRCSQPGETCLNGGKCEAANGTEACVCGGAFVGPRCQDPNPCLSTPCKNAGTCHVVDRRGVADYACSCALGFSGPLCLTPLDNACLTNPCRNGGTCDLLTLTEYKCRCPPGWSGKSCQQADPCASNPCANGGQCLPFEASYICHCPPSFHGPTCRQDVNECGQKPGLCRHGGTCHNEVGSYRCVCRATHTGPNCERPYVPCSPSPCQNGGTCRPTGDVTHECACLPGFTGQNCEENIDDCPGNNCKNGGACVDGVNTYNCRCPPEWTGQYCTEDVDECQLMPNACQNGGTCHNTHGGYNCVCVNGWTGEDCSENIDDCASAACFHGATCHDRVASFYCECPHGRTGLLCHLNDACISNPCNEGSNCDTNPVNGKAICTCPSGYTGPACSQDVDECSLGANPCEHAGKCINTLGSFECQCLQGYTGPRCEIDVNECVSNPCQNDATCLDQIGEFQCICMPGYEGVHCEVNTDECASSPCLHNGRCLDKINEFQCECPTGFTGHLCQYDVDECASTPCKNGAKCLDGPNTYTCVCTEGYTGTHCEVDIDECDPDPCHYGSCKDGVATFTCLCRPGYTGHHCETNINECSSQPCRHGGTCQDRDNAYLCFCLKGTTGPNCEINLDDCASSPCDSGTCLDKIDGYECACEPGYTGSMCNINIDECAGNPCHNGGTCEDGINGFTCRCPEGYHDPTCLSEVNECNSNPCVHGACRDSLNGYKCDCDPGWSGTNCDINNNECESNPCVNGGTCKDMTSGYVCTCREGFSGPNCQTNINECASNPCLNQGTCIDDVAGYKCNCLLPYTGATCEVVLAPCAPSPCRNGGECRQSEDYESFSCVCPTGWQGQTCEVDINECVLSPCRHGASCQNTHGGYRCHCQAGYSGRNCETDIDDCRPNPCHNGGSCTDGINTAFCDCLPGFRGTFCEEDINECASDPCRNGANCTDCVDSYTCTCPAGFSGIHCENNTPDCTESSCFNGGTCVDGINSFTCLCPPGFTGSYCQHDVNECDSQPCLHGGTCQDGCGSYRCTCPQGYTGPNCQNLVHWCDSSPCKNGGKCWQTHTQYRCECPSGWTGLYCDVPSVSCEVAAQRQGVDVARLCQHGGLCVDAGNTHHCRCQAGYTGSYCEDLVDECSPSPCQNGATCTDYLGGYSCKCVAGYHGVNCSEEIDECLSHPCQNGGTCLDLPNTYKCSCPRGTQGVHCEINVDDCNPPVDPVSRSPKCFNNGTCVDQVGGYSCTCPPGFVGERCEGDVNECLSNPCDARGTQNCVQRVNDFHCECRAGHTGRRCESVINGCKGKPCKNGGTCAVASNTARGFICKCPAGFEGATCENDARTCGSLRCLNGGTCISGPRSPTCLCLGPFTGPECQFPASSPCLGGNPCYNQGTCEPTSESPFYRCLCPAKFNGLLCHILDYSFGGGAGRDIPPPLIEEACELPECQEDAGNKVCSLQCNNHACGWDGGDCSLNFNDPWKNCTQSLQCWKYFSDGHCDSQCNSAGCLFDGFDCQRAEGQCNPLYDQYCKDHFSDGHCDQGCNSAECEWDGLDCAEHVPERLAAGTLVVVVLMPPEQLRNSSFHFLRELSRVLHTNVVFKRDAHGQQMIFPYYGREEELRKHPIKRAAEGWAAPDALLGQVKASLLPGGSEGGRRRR
Sequence of Notch1 (P46531 1665-1756 limits assumed): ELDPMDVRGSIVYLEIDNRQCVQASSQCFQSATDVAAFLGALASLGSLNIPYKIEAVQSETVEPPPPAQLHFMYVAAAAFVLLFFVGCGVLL
Description: On day one, 2-fold serial dilutions of non-biotinylated DLL4 recombinant proteins (N-EGF5) were prepared in 100 μL of DPBS and used to coat 96-well plates (Coastar) for 1 hour at 37° C. WT DLL4 started at 66.56 ng/mm^2 and Delta^MAX at 0.33 ng/mm^2. Then, the wells were washed three times with 200 μL of DPBS to remove unbound proteins. Next, CHO-K1 N1-Gal4 cells in culture were detached with trypsin-EDTA 0.25% (Gibco) and manually counted. Appropriate dilutions were prepared in α-MEM media to ensure 30,000 CHO-K1 N1-Gal4 cells per well in 200 μL. Ligand-coated plates and reporter cell lines were incubated for 24 hours at 37° C. and 5% CO2. On day two, CHO-K1 N1-Gal4 cells were washed with 200 μL DPBS, detached with 30 μL of trypsin-EDTA 0.25%, and quenched with 200 μL of α-MEM media. Finally, cells were resuspended and H2B-mCitrine signal was measured by flow cytometry (BD Accuri C6 plus). CHO-K1 N1-Gal4 and ligand-lacking wells were used as a negative control. The measurements represent the mean fluorescent intensity as percentage of Notch activation±s.d. of three biological replicates. Notch activation was reference-subtracted from a well coated with 0.5% BSA containing CHO-K1 N1-Gal4 cells. Gating strategies for this experiment are detailed in FIG. 13A.

Notch1 [3] = assay: Notch activation with ligand-oriented coupling on streptavidin plates (CHO-K1 N1-Gal4 reporter); type: cell-based; details: for EC50: C-terminally biotinylated, streptavidin-coated plates (oriented coupling), 24 hours; for maximum level of Notch1 activation, oriented coupling versus non-specific adsorption: FIG. 3B
Description: For CHO-K1 N1-Gal4 reporters, on day one, tissue culture 96-well plates (Coastar) were pre-treated with 100 μL of streptavidin at 10 μg/mL (VWR) for 1 hour at 37° C., washed three times with 200 μL DPBS (Corning), and blocked with 100 μL BSA 2% (VWR) for 1 hour at 37° C. Excess BSA was removed by washing three times with 200 μL DPBS (Corning), and 100 μL of DPBS containing biotinylated DLL4 proteins were coupled to streptavidin for 1 hour at 37° C. (2-fold serial dilutions starting at 50 nM). Non-coupled DLL4 proteins were removed by washing three times with 200 μL DPBS. Next, Notch reporter cells in culture were detached with trypsin-EDTA 0.25% (Gibco), and 30,000 cells in α-MEM media (200 μL) were added into individual wells. Assay plates were incubated for 24 hours at 37° C., and 5% CO2. On day two, CHO-K1 N1-Gal4 cells were washed with 200 μL DPBS, detached with 30 μL of trypsin-EDTA 0.25%, and 200 μL of α-MEM media added. Cells were resuspended and Notch activation was measured as a function of fluorescence by flow cytometry (BD Accuri C6 plus). CHO-K1 N1-Gal4 cells and lacking-ligand wells were used as a negative control. The measurements represent the mean fluorescent intensity as percentage of Notch activation±s.d. of three biological replicates. Notch activation was reference-subtracted from a well coated with a non-related control protein (PA domain of RNF128).

B1: Delta^MAX: engineered human DLL4 consensus variant with 10 mutations combining DLL4.v1 and DLL4.v2 mutations; sequence matches SEQ ID NO: 4/10 (protein)
chain: SSVFQLQLQEFINERGVLASGRPCEPGCRTFFRVCLKHFQAVVSPGPCTFGTVSTPVLGTNSFAVRDDSSGGGRNPLQLPLNFTWPGTFSLIIEAWHAPGDDLRPEALPPDALISKFAIQGSLAVGQNWLLDEQTSTLTRLRYSYRVICSDNYYGDNCSRLCKKRNDYFGHYVCQPDGNPSCLPGWTGEYCQQPICLSGCHEQNGYCSKPAECLCRPGWQGRLCNECIPHPGCRHGTCSTPWQCLCDEGWGGLYCDQDLNYCTHHSPCKNGATCRNSGPRSYTCTCRPGYTGVDCELELSECDSNPCRNGGSCKDQEDGYHCLCPPGYYGLHCEHSTLSCADSPCFNGGSCRERNQGANYACECPPNFTGSNCE
Which results are given for B1?
neuronal differentiation compared with 10 μM of DAPT ([1]; 1 μM soluble protein): comparable to, if not superior to; neural progenitor marker SOX2 expression [1]: repressed; neuronal markers (MAPT, SNAP25, DCX, VGLUT2, TBR1) expression [1]: sharply increased; Emax greater than that induced by WT DLL4 (Notch1 [2]; non-specific adsorption): 20%; EC50 for Notch1 activation (Notch1 [2]): 0.009 ng/mm^2; improvement in Notch activation efficiency vs WT DLL4 (Notch1 [2]; ratio of EC50, non-specific adsorption): 250 fold; EC50 (Notch1 [3]): 1.7 nM; maximum level of Notch1 activation, oriented coupling versus non-specific adsorption (Notch1 [3]): higher maximum level

B2: WT DLL4: human wild-type Delta-like 4 (N-EGF5, residues 27-400), SEQ ID NO: 1 (protein)
chain: SGVFQLQLQEFINERGVLASGRPCEPGCRTFFRVCLKHFQAVVSPGPCTFGTVSTPVLGTNSFAVRDDSSGGGRNPLQLPFNFTWPGTFSLIIEAWHAPGDDLRPEALPPDALISKIAIQGSLAVGQNWLLDEQTSTLTRLRYSYRVICSDNYYGDNCSRLCKKRNDHFGHYVCQPDGNLSCLPGWTGEYCQQPICLSGCHEQNGYCSKPAECLCRPGWQGRLCNECIPHNGCRHGTCSTPWQCTCDEGWGGLFCDQDLNYCTHHSPCKNGATCSNSGQRSYTCTCRPGYTGVDCELELSECDSNPCRNGGSCKDQEDGYHCLCPPGYYGLHCEHSTLSCADSPCFNGGSCRERNQGANYACECPPNFTGSNCE
Which results are given for B2?
neural progenitor marker SOX2 expression [1]: failed to upregulate neuronal markers or to repress neural progenitor markers; neuronal markers (MAPT, SNAP25, DCX, VGLUT2, TBR1) expression [1]: failed to upregulate neuronal markers; EC50 for Notch1 activation (Notch1 [2]): 2.3 ng/mm^2; EC50 (Notch1 [3]): 16 nM; maximum level of Notch1 activation, oriented coupling versus non-specific adsorption (Notch1 [3]): higher maximum level
